Laboratory results as given in patent publication US20180273587A1 (AILERON THERAPEUTICS, published 2018).
Starred links: 1 amine or outer side, 2 acyl side, 3 side chain; linkers in the order of their positions; H or OH if unused. Positions of bridges follow the written chain, without caps; N, C: chain ends. Non-standard residues stand in square brackets, D forms with d. St = two pentenyl-alanine olefin side chains, each crosslinked to another residue (stitch), C=CCCCC(CCCC=C)(N[*:1])C(=O)[*:2]; Phe(4-F) = N[C@@H](Cc1ccc(F)cc1)C(=O)O; 2Nal = N[C@@H](Cc1ccc2ccccc2c1)C(=O)O; hPhe = N[C@@H](CCc1ccccc1)C(=O)O; R8 = C=CCCCCCC[C@@](C)(N)C(=O)O; Cha = N[C@@H](CC1CCCCC1)C(=O)O; S8 = C=CCCCCCC[C@](C)(N)C(=O)O; S5 = C=CCCC[C@](C)(N)C(=O)O; Abu = CC[C@H](N)C(=O)O

Tests used:
Experiment in all cases: Ki; method not stated; unit not printed (nM per Table 6)
BCL-2 = target: T1, BCL-2 (UniProt P10415 1-217, limits assumed)
T1 construct: Target of the Ki columns

BCL-XL = target: T2, BCL-XL (UniProt Q07817 1-209)
T2 construct: Target of the Ki columns

MCL-1 = target: T3, MCL-1 (UniProt Q07820 172-327, limits assumed)
T3 construct: Target of the Ki columns; also called Myeloid cell leukemia 1
T3 sequence (Q07820 172-327 limits assumed): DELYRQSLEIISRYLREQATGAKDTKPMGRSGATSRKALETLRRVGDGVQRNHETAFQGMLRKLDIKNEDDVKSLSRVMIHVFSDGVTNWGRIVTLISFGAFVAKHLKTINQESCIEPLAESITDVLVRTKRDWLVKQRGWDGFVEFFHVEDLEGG

T2 sequence (Q07817 1-209): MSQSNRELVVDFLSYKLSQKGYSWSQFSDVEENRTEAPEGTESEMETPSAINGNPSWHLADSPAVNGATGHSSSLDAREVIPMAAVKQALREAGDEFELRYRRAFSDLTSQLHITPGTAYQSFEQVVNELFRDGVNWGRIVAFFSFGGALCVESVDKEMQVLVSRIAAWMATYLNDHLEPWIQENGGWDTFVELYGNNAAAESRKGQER
T1 sequence (P10415 1-217 limits assumed): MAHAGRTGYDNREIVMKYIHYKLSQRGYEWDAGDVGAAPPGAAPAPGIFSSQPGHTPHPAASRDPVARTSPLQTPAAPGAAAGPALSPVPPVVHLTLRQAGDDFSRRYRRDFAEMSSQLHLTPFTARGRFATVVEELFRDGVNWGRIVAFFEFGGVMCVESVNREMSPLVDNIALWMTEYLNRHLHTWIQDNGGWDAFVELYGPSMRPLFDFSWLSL

Binder	Ki (BCL-2) [nM]	Ki (BCL-XL) [nM]	Ki (MCL-1) [nM]
Ac-IWIAQALR[R8]IGDAWN[S5]YYA-NH2 (staple 9-16; SMILES CC[C@H](C)[C@H](NC(C)=O)C(=O)N[C@@H](Cc1c[nH]c2ccccc12)C(=O)N[C@H](C(=O)N[C@@H](C)C(=O)N[C@@H](CCC(N)=O)C(=O)N[C@@H](C)C(=O)N[C@@H](CC(C)C)C(=O)N[C@@H](CCCNC(=N)N)C(=O)N[C@]1(C)CCCCCCC=CCCC[C@@](C)(C(=O)N[C@@H](Cc2ccc(O)cc2)C(=O)N[C@@H](Cc2ccc(O)cc2)C(=O)N[C@@H](C)C(N)=O)NC(=O)[C@H](CC(N)=O)NC(=O)[C@H](Cc2c[nH]c3ccccc23)NC(=O)[C@H](C)NC(=O)[C@H](CC(=O)O)NC(=O)CNC(=O)[C@H]([C@@H](C)CC)NC1=O)[C@@H](C)CC) [SEQ ID NO: 1742]	17.7	14.5	2.3
IWIAQALRAIGDAANAYYA (N-terminal Ac; $r8 at 9 and $ at 16 (crosslinked); 2Nal at 14; C-terminal NH2) [SEQ ID NO: 1746]	35.1	19.1	4.4
Ac-IWIAQALR[R8]IGDAFN[S5]YAA-NH2 (staple 9-16; SMILES CC[C@H](C)[C@H](NC(C)=O)C(=O)N[C@@H](Cc1c[nH]c2ccccc12)C(=O)N[C@H](C(=O)N[C@@H](C)C(=O)N[C@@H](CCC(N)=O)C(=O)N[C@@H](C)C(=O)N[C@@H](CC(C)C)C(=O)N[C@@H](CCCNC(=N)N)C(=O)N[C@]1(C)CCCCCCC=CCCC[C@@](C)(C(=O)N[C@@H](Cc2ccc(O)cc2)C(=O)N[C@@H](C)C(=O)N[C@@H](C)C(N)=O)NC(=O)[C@H](CC(N)=O)NC(=O)[C@H](Cc2ccccc2)NC(=O)[C@H](C)NC(=O)[C@H](CC(=O)O)NC(=O)CNC(=O)[C@H]([C@@H](C)CC)NC1=O)[C@@H](C)CC) [SEQ ID NO: 1754]	102	51.8	20.3
Ac-IWIAQALR[R8]IGDAFN[S5]YLA-NH2 (staple 9-16; SMILES CC[C@H](C)[C@H](NC(C)=O)C(=O)N[C@@H](Cc1c[nH]c2ccccc12)C(=O)N[C@H](C(=O)N[C@@H](C)C(=O)N[C@@H](CCC(N)=O)C(=O)N[C@@H](C)C(=O)N[C@@H](CC(C)C)C(=O)N[C@@H](CCCNC(=N)N)C(=O)N[C@]1(C)CCCCCCC=CCCC[C@@](C)(C(=O)N[C@@H](Cc2ccc(O)cc2)C(=O)N[C@@H](CC(C)C)C(=O)N[C@@H](C)C(N)=O)NC(=O)[C@H](CC(N)=O)NC(=O)[C@H](Cc2ccccc2)NC(=O)[C@H](C)NC(=O)[C@H](CC(=O)O)NC(=O)CNC(=O)[C@H]([C@@H](C)CC)NC1=O)[C@@H](C)CC) [SEQ ID NO: 1755]	18.9	9	23.4
Ac-IWIAQALR[R8]IGDAFN[S5]Y[Cha]A-NH2 (staple 9-16; SMILES CC[C@H](C)[C@H](NC(C)=O)C(=O)N[C@@H](Cc1c[nH]c2ccccc12)C(=O)N[C@H](C(=O)N[C@@H](C)C(=O)N[C@@H](CCC(N)=O)C(=O)N[C@@H](C)C(=O)N[C@@H](CC(C)C)C(=O)N[C@@H](CCCNC(=N)N)C(=O)N[C@]1(C)CCCCCCC=CCCC[C@@](C)(C(=O)N[C@@H](Cc2ccc(O)cc2)C(=O)N[C@@H](CC2CCCCC2)C(=O)N[C@@H](C)C(N)=O)NC(=O)[C@H](CC(N)=O)NC(=O)[C@H](Cc2ccccc2)NC(=O)[C@H](C)NC(=O)[C@H](CC(=O)O)NC(=O)CNC(=O)[C@H]([C@@H](C)CC)NC1=O)[C@@H](C)CC) [SEQ ID NO: 1756]	28.9	8.6	24.1
Ac-IWIAQALR[R8]IGDAFN[S5]Y[hPhe]A-NH2 (staple 9-16; SMILES CC[C@H](C)[C@H](NC(C)=O)C(=O)N[C@@H](Cc1c[nH]c2ccccc12)C(=O)N[C@H](C(=O)N[C@@H](C)C(=O)N[C@@H](CCC(N)=O)C(=O)N[C@@H](C)C(=O)N[C@@H](CC(C)C)C(=O)N[C@@H](CCCNC(=N)N)C(=O)N[C@]1(C)CCCCCCC=CCCC[C@@](C)(C(=O)N[C@@H](Cc2ccc(O)cc2)C(=O)N[C@@H](CCc2ccccc2)C(=O)N[C@@H](C)C(N)=O)NC(=O)[C@H](CC(N)=O)NC(=O)[C@H](Cc2ccccc2)NC(=O)[C@H](C)NC(=O)[C@H](CC(=O)O)NC(=O)CNC(=O)[C@H]([C@@H](C)CC)NC1=O)[C@@H](C)CC) [SEQ ID NO: 1757]	30.7	12.1	8
Ac-IWIAQALR[R8]IGDAFN[S5]YWA-NH2 (staple 9-16; SMILES CC[C@H](C)[C@H](NC(C)=O)C(=O)N[C@@H](Cc1c[nH]c2ccccc12)C(=O)N[C@H](C(=O)N[C@@H](C)C(=O)N[C@@H](CCC(N)=O)C(=O)N[C@@H](C)C(=O)N[C@@H](CC(C)C)C(=O)N[C@@H](CCCNC(=N)N)C(=O)N[C@]1(C)CCCCCCC=CCCC[C@@](C)(C(=O)N[C@@H](Cc2ccc(O)cc2)C(=O)N[C@@H](Cc2c[nH]c3ccccc23)C(=O)N[C@@H](C)C(N)=O)NC(=O)[C@H](CC(N)=O)NC(=O)[C@H](Cc2ccccc2)NC(=O)[C@H](C)NC(=O)[C@H](CC(=O)O)NC(=O)CNC(=O)[C@H]([C@@H](C)CC)NC1=O)[C@@H](C)CC) [SEQ ID NO: 1758]	23.5	15.4	3.9
Ac-IWIAQALR[R8]IGDAFN[S5]Y[2Nal]A-NH2 (staple 9-16; SMILES CC[C@H](C)[C@H](NC(C)=O)C(=O)N[C@@H](Cc1c[nH]c2ccccc12)C(=O)N[C@H](C(=O)N[C@@H](C)C(=O)N[C@@H](CCC(N)=O)C(=O)N[C@@H](C)C(=O)N[C@@H](CC(C)C)C(=O)N[C@@H](CCCNC(=N)N)C(=O)N[C@]1(C)CCCCCCC=CCCC[C@@](C)(C(=O)N[C@@H](Cc2ccc(O)cc2)C(=O)N[C@@H](Cc2ccc3ccccc3c2)C(=O)N[C@@H](C)C(N)=O)NC(=O)[C@H](CC(N)=O)NC(=O)[C@H](Cc2ccccc2)NC(=O)[C@H](C)NC(=O)[C@H](CC(=O)O)NC(=O)CNC(=O)[C@H]([C@@H](C)CC)NC1=O)[C@@H](C)CC) [SEQ ID NO: 1759]	65.2	26.1	8
Ac-IWIAQALR[R8]IGDAFN[S5][Phe(4-F)]YA-NH2 (staple 9-16; SMILES CC[C@H](C)[C@H](NC(C)=O)C(=O)N[C@@H](Cc1c[nH]c2ccccc12)C(=O)N[C@H](C(=O)N[C@@H](C)C(=O)N[C@@H](CCC(N)=O)C(=O)N[C@@H](C)C(=O)N[C@@H](CC(C)C)C(=O)N[C@@H](CCCNC(=N)N)C(=O)N[C@]1(C)CCCCCCC=CCCC[C@@](C)(C(=O)N[C@@H](Cc2ccc(F)cc2)C(=O)N[C@@H](Cc2ccc(O)cc2)C(=O)N[C@@H](C)C(N)=O)NC(=O)[C@H](CC(N)=O)NC(=O)[C@H](Cc2ccccc2)NC(=O)[C@H](C)NC(=O)[C@H](CC(=O)O)NC(=O)CNC(=O)[C@H]([C@@H](C)CC)NC1=O)[C@@H](C)CC) [SEQ ID NO: 1769]	200	26	14.9
Ac-IWIAQALR[R8]IGDAFN[S5]AYA-NH2 (staple 9-16; SMILES CC[C@H](C)[C@H](NC(C)=O)C(=O)N[C@@H](Cc1c[nH]c2ccccc12)C(=O)N[C@H](C(=O)N[C@@H](C)C(=O)N[C@@H](CCC(N)=O)C(=O)N[C@@H](C)C(=O)N[C@@H](CC(C)C)C(=O)N[C@@H](CCCNC(=N)N)C(=O)N[C@]1(C)CCCCCCC=CCCC[C@@](C)(C(=O)N[C@@H](C)C(=O)N[C@@H](Cc2ccc(O)cc2)C(=O)N[C@@H](C)C(N)=O)NC(=O)[C@H](CC(N)=O)NC(=O)[C@H](Cc2ccccc2)NC(=O)[C@H](C)NC(=O)[C@H](CC(=O)O)NC(=O)CNC(=O)[C@H]([C@@H](C)CC)NC1=O)[C@@H](C)CC) [SEQ ID NO: 1775]	112	12.6	5.3
Ac-I[R8]IAQALR[St]IGDEFN[S8]YYA-NH2 (staple 9-16, 2-9, Row prints Ac-I$r8IAQALRStIGDEFN$s8YYA-NH2) [SEQ ID NO: 1782]	22	1.1	1.1
Ac-IWIA[S5]ALR[St]IGDEFN[S8]YYA-NH2 (staple 9-16, 5-9, Row prints Ac-IWIA$ALRStIGDEFN$s8YYA-NH2) [SEQ ID NO: 1783]	19.2	1.6	1.6
Ac-IWIAAALK[R8]IGDAFN[S5]YYA-NH2 (staple 9-16; SMILES CC[C@H](C)[C@H](NC(C)=O)C(=O)N[C@@H](Cc1c[nH]c2ccccc12)C(=O)N[C@H](C(=O)N[C@@H](C)C(=O)N[C@@H](C)C(=O)N[C@@H](C)C(=O)N[C@@H](CC(C)C)C(=O)N[C@@H](CCCCN)C(=O)N[C@]1(C)CCCCCCC=CCCC[C@@](C)(C(=O)N[C@@H](Cc2ccc(O)cc2)C(=O)N[C@@H](Cc2ccc(O)cc2)C(=O)N[C@@H](C)C(N)=O)NC(=O)[C@H](CC(N)=O)NC(=O)[C@H](Cc2ccccc2)NC(=O)[C@H](C)NC(=O)[C@H](CC(=O)O)NC(=O)CNC(=O)[C@H]([C@@H](C)CC)NC1=O)[C@@H](C)CC) [SEQ ID NO: 1737]	25.6	11.7	23.2
Ac-IWIAAALR[R8]I[Abu]DAFN[S5]YYA-NH2 (staple 9-16; SMILES CC[C@@H]1NC(=O)[C@H]([C@@H](C)CC)NC(=O)[C@](C)(NC(=O)[C@H](CCCNC(=N)N)NC(=O)[C@H](CC(C)C)NC(=O)[C@H](C)NC(=O)[C@H](C)NC(=O)[C@H](C)NC(=O)[C@@H](NC(=O)[C@H](Cc2c[nH]c3ccccc23)NC(=O)[C@@H](NC(C)=O)[C@@H](C)CC)[C@@H](C)CC)CCCCCCC=CCCC[C@@](C)(C(=O)N[C@@H](Cc2ccc(O)cc2)C(=O)N[C@@H](Cc2ccc(O)cc2)C(=O)N[C@@H](C)C(N)=O)NC(=O)[C@H](CC(N)=O)NC(=O)[C@H](Cc2ccccc2)NC(=O)[C@H](C)NC(=O)[C@H](CC(=O)O)NC1=O) [SEQ ID NO: 1738]	131	112	106
